In patent US20150266951A1 (SNU R AND DB FOUNDATION, published 2015):

T1: recombinant human IP-10 protein (IFN-γ-inducible protein 10) (human, UniProt P02778 22-98)
T1 construct: also called IP-10 antigen; recombinant IP-10
T1 sequence: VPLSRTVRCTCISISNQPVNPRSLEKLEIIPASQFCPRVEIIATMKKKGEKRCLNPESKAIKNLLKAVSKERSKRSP

T2: Epitope 4 of IP-10 (amino acids 61-98), recombinant segment expressed in E. coli from pET41 (human)
T2 construct: Segment cloned EcoRI/XhoI into PET41 vector and tested as lysate of the expressing E. coli in western blot; any tags from the vector are not described; not shown: vector-coded fusion part of pET41 (GST is run as the negative control)
T2 chain: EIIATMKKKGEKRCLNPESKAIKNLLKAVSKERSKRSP

B1: anti-IP-10 monoclonal antibody #116 (antibody, V domains shown)
VH: QVQLQQSGPELVKPGASVKISCKASGYAFSSSWMNWVKQRPGQGLEWIGRIYPGDGDTNYNGKFKGKATLTADKSSSTAYMQLSSLTSVDSAVYFCARIGNYYGSSYLYWYFDVWGAGTTVTVS
VL: DIQMTQSPSSLSASLGGKVTITCKASQDIDKYIAWYQHRPGKGPSLLIHYTSTLQPGIPSRFSGSGSGKNYSFSISNLEPEDIATYYCLQYDNLLLTFGAGTKLELKR
notes: Mouse monoclonal antibody from a hybridoma; also called clone #116; clone #116 monoclonal antibody
B2: anti-IP-10 monoclonal antibody #129 (antibody, V domains shown)
VH: QVQLKQSGPGLVQPSQSLSITCTVSGFSLTSYGVHWVRQSPGKGLEWLGVIWSGGSTDYNAAFISRLSISKDNSKSQVFFKMNSLQANDTAIYYCARNWGAMDYWGQGTSVTVSS
VL: DIVMTQSPSSLSVSAGEKVTMSCKSSQSLLNSGNQKNYLAWYQQKPGQPPKLLIYGASTRESGVPDRFTGSGSGTDFTLTISSVQAEDLAVYYCQNDHSYPLTFGAGTKLELKR
notes: Mouse monoclonal antibody from a hybridoma; also called clone #129; clone #129 monoclonal antibody
B3: anti-IP-10 monoclonal antibody #77 (antibody, V domains shown)
VH: QIQLVHSGPELKKPGETVKISCKASGYTFTDYSMHWVKQAPGKGLKWMGWINTETGEPTYADDFKGRFAFSLETSASTAYLQINNLKNEDTATYFCARMYDYSYYFDYWGQGTTLTVSS
VL: DIQMTQSPASLSVSVGETVTITCRASENIYSNLAWYQQKQGKSPQLLVYAATNLADGVPSRFSGSGSGTQYSLKINSLQSEDFGSYYCQHFWGTPYTFGGGTKLEIKR
notes: Mouse monoclonal antibody from a hybridoma; also called clone #77; clone #77 monoclonal antibody
B4: anti-IP-10 monoclonal antibody #88 (antibody, V domains shown)
VH: EVMLVESGGGLVKPGGSLKLSCTVSGFTFSGYAMSWVRQTPEKRLEWVASITSGGSYTSYPDNMKGRLTISRDNDRNTLDLQMSSLRSEDTAMYFCTRHSPVIASWFAYWGQGTLVHC
VL: DVLMTQTPLSLPVSLGDQASISCRSSQSIVHSNGNTYLEWYLQKPGQSPKLLIYKVSNRFSGVPDRFSGSGSGTDFTLKISRVEAEDMGVYYCFQGSHVPFTFGSGTKLEIKR
notes: Mouse monoclonal antibody from a hybridoma; also called clone #88; clone #88 monoclonal antibody

What follows are binders tested against T1, recombinant human IP-10 protein … (assay: western blot on recombinant human IP-10 protein).

binding result	Binder
binds	B1
binds	B2
binds	B3
binds	B4

Target: T2, Epitope 4 of IP-10 (amino acids 61-98), …
Assay: western blot on recombinant IP-10 segments expressed in E. coli
Description: E. coli expressing each of the 4 epitopes of recombinant IP-10 was suspended in PBS buffer (137 mM NaCl, 2.7 mM KCl, 10 mM Na2HPO4, 2 mM KH2PO4) and the same volume of SDS-gel loading buffer (100 mM Tris-C1 (pH 6.8), 4% SDS, 0.2% bromophenol blue, 20% glycerol, 200 mM DTT) and heated at 100° C. for 5 min. The mixture was then centrifuged at 13,000 rpm for 10 min and the supernatant was separated on 12% SDS-PAGE, and the proteins separated on the gel were transferred to a polyvinylidenfluoride membrane. Western blot was performed using anti-IP-10 antibody and enhanced chemiluminescent reagent.

binding result	Binder
binds	B1
binds	B2
binds	B3
binds	B4
